Among the data in patent US20190248903A1 (Genentech, published 2019) are Kd values, retold here.

As a reminder, the Kd is the equilibrium constant for the complex coming apart.

Assay [1] addresses T1, cynomolgus CLL-1 on cells (HEK293AD cells stably expressing recombinant cynoCLL-1) (cynomolgus monkey).
T1 construct: also called 293AD/cynoCLL-1; 293AD/cynoCLL1
T1 chain: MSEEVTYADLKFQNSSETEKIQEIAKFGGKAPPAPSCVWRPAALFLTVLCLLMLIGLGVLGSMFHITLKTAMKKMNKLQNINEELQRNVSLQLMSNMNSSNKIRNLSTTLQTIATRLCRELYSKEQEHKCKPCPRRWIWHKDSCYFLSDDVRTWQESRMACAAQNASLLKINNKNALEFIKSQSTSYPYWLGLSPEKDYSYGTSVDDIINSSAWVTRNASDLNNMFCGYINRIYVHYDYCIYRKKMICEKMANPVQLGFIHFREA
Nature of the assay: Scatchard analysis on 293AD/cynoCLL1 cells. On the procedure:
Competition assay mixtures of 50 μL volume containing a fixed concentration of [I¹²⁵] labeled antibody and decreasing concentrations of serially diluted, unlabeled antibody were placed into 96-well plates. HEK293AD cells stably expressing recombinant hu or cynoCLL-1 or HL-60 tumor cells expressing endogenous CLL-1 were cultured in growth media at 37° C. in 5% CO₂. Cells were detached from the flask using Sigma Cell Dissociation Solution and were washed with binding buffer, which consisted of Dulbecco's Modified Eagle Medium (DMEM) with 1% bovine serum albumin (BSA), […] and 0.1% sodium azide. The washed cells were added to the 96 well plates at a density of 100,000 cells in 0.2 mL of binding buffer. […] The final concentration of the unlabeled antibody in the competition assay ranged from 1000 nM through ten 2-fold dilution steps to a 0 nM buffer-only assay. Competition assays were carried out in triplicate. Competition assays were incubated for 2 hours at room temperature. […] The filters were counted on a Wallac Wizard 1470 gamma counter (PerkinElmer Life and Analytical Sciences Inc.; Wellesley, Mass.). The binding data was evaluated using NewLigand software (Genentech), which uses the fitting algorithm of Munson and Robard to determine the binding affinity of the antibody (Munson and Robard 1980).

Assay [2] has as its target T1, cynomolgus CLL-1 on cells (HEK293AD …). Put plainly: Scatchard analysis on 293AD/cynoCLL1 cells; 293AD/cynoCLL1 cells.

B1: humanized 6E7.L4H1e (antibody, V domains shown)
VH: EVQLVQSGAEVKKPGASVKVSCKASGYSFTDYYMHWVRQAPGQGLEWIGRINPYNGAAFYSQNFKDRVTLTVDTSTSTAYLELSSLRSEDTAVYYCAIERGADLEGYAMDYWGQGTLVTVSS
VL: DIQMTQSPSSLSASVGDRVTITCRASQSVSTSSYNYMHWYQQKPGKPPKLLIKYASNLESGVPSRFSGSGSGTDFTLTISSLQPEDFATYYCQHSWEIPLTFGQGTKVEIK
notes: also called h6E7.L4H1e; 6E7.L4H1eN54
Regarding B1, the dissociation constant (Kd) in assay [1] was found to be 0.22 nM; in assay [2] it was 0.67 nM.
